The source of these data is patent US20260250388A1 (published 2026).

T1: KRAS G12V peptide on HLA-A*11:01 (human)
T1 peptide: VVVGAVGVGK

T2: KRAS G12V peptide on HLA-A*11:01 (human)
T2 peptide: VVGAVGVGK

B1: TCR1 (TCR)
TCR alpha: SLAKTTQPISMDSYEGQEVNITCSHNNIATNDYITWYQQFPSQGPRFIIQGYKTKVTNEVASLFIPADRKSSTLSLPRVSLSDTAVYYCLVGALSSSWYGQNFVFGPGTRLSVLPYIQNPDPAVYQLRDSKSSDKSVCLFTDFDSQTNVSQSKDSDVYITDKTVLDMRSMDFKSNSAVAWSNKSDFACANAFNNSIIPEDTFFPSPESSCDVKLVEKSFETDTNLNFQNLSVIGFRILLLKVAGFNLLMTLRLWSS
TCR beta: DTAVSQTPKYLVTQMGNDKSIKCEQNLGHDTMYWYKQDSKKFLKIMFSYNNKELIINETVPNRFSPKSPDKAHLNLHINSLELGDSAVYFCASSQSGAQDGYTFGSGTRLTVVEDLNKVFPPEVAVFEPSEAEISHTQKATLVCLATGFFPDHVELSWWVNGKEVHSGVSTDPQPLKEQPALNDSRYCLSSRLRVSATFWQNPRNHFRCQVQFYGLSENDEWTQDRAKPVTQIVSAEAWGRADCGFTSVSYQQGVLSATILYEILLGKATLYAVLVSALVLMAMVKRKDF
B2: TCR4 (TCR, V domains shown)
Valpha: QKEVEQNSGPLSVPEGAIASLNCTYSDRGSQSFFWYRQYSGKSPELIMFIYSNGDKEDGRFTAQLNKASQYVSLLIRDSQPSDSATYLCAVERGSTLGRLYFGRGTQLTVWP
Vbeta: GAGVSQSPRYKVTKRGQDVTLRCDPISSHATLYWYQQALGQGPEFLTYFNYEAQPDKSGLPSDRFSAERPEGSISTLTIQRTEQRDSAMYRCASSLSSPTGGPINEQFFGPGTRLTVL
B3: TCR2 (TCR, V domains shown)
Valpha: DQQVKQNSPSLSVQEGRISILNCDYTNSMFDYFLWYKKYPAEGPTFLISISSIKDKNEDGRFTVFLNKSAKHLSLHIVPSQPGDSAVYFCAAKDNAGNMLTFGGGTRLMVKP
Vbeta: KAGVTQTPRYLIKTRGQQVTLSCSPISGHRSVSWYQQTPGQGLQFLFEYFSETQRNKGNFPGRFSGRQFSNSRSEMNVSTLELGDSALYLCASSLGTAEAFFGQGTRLTVV
B4: TCR7 (TCR, V domains shown)
Valpha: B3 Valpha with A92G, D94T, A96T, M99Q, L100F, T101Y, G104T, R107S, M109T, K111I
Vbeta: B3 Vbeta with L95S, T97H, A98P
B5: TCR6 (TCR, V domains shown)
Valpha: AQSVTQPDIHITVSEGASLELRCNYSYGATPYLFWYVQSPGQGLQLLLKYFSGDTLVQGIKGFEAEFKRSQSSFNLRKPSVHWSDAAEYFCAVGASREYGNKLVFGAGTILRVKS
Vbeta: NAGVMQNPRHLVRRRGQEARLRCSPMKGHSHVYWYRQLPEEGLKFMVYLQKENIIDESGMPKERFSAEFPKEGPSILRIQQVVRGDSAAYFCASSPGGLLHFGNGTRLTVT
B6: TCR8 (TCR, V domains shown)
Valpha: SQQGEEDPQALSIQEGENATMNCSYKTSINNLQWYRQNSGRGLVHLILIRSNEREKHSGRLRVTLDTSKKSSSLLITASRAADTASYFCATDAGGGADGLTFGKGTHLIIQP
Vbeta: DSGVTQTPKHLITATGQRVTLRCSPRSGDLSVYWYQQSLDQGLQFLIQYYNGEERAKGNILERFSAQQFPDLHSELNLSSLELGDSALYFCASSESRDSGNTIYFGEGSWLTVV
B7: TCR9 (TCR, V domains shown)
Valpha: B6 Valpha with A93S
Vbeta: B6 Vbeta with S94T, E95P, S96G
B8: TCR5 (TCR, V domains shown)
Valpha: GEDVEQSLFLSVREGDSSVINCTYTDSSSTYLYWYKQEPGAGLQLLTYIFSNMDMKQDQRLTVLLNKKDKHLSLRIADTQTGDSAIYFCAESPGGGADGLTFGKGTHLIIQP
Vbeta: GAVVSQHPSWVICKSGTSVKIECRSLDFQATTMFWYRQFPKQSLMLMATSNEGSKATYEQGVEKDKFLINHASLTLSTLTVTSAHPEDSSFYICSAPRGWAAGVYGYTFGSGTRLTVV
B9: TCR3 (TCR, V domains shown)
Valpha: DQQVKQNSPSLSVQEGRISILNCDYTNSMFDYFLWYKKYPAEGPTFLISISSIKDKNEDGRFTVFLNKSAKHLSLHIVPSQPGDSAVYFCAANSGYALNFGKGTSLLVTP
Vbeta: KAGVTQTPRYLIKTRGQQVTLSCSPISGHRSVSWYQQTPGQGLQFLFEYFSETQRNKGNFPGRFSGRQFSNSRSEMNVSTLELGDSALYLCASSLGGVGNEQFFGPGTRLTVL
B10: TCR1 (TCR, V domains shown)
Valpha: LAKTTQPISMDSYEGQEVNITCSHNNIATNDYITWYQQFPSQGPRFIIQGYKTKVTNEVASLFIPADRKSSTLSLPRVSLSDTAVYYCLVGALSSSWYGQNFVFGPGTRLSVLP
Vbeta: DTAVSQTPKYLVTQMGNDKSIKCEQNLGHDTMYWYKQDSKKFLKIMFSYNNKELIINETVPNRFSPKSPDKAHLNLHINSLELGDSAVYFCASSQSGAQDGYTFGSGTRLTVV

Where a chain is given by its changes, count along the chain named.

One assay has as its target HLA-A*11:01 / KRAS G12V 9-mer peptide … complex (human). Kind of assay: cell-based or functional assay.
For B1, the EC50 of CD69 expression of TCR-transduced Jurkat cells after co-culture with K562-A*11:01 loaded with graded peptide concentrations (FIG. 4C) came to 2.24 nM.

The next assay deals with HLA-A*11:01 / KRAS G12V 10-mer peptide … complex (human). The assay can be described thus: cell-based or functional assay.
For the molecule B1, the EC50 of CD69 expression of TCR-transduced Jurkat cells after co-culture with K562-A*11:01 loaded with graded peptide concentrations (FIG. 4C) came to 31.3 nM; the fold difference of EC50 (CD69 expression) between the 10-mer and the 9-mer peptide is 10 fold.

The next assay concerns the target T1, KRAS G12V peptide on HLA-A*11:01. The assay can be described thus: killing. An excerpt:
A lentiviral vector containing the TCR gene of the present invention was constructed and used to transduce T cells. The T cells transduced with different TCRs were co-cultured with: (1) HLA-A*11:01-expressing K562 cells loaded with different peptides (G12V-9 peptide: […] (SEQ ID NO: 91), G12V-10 peptide: […] (SEQ ID NO: 92), or WT peptide: […] (SEQ ID NO: 93)+[…] (SEQ ID NO: 94)); and (2) BxPC3 cells expressing HLA-A*11:01, co-expressing HLA-A*11:01 and KRAS G12V, or co-expressing HLA-A*11:01 and KRAS G12D (effector cell:target cell=5:1). After co-incubation for 16 h, the killing ability of T cells against target cells was evaluated by detecting LDH release. Statistical data are shown in FIGS. 2A and 2B (GraphPad Prism 8.0.1 software).
On to B2, for which the binding result is “recognises”.

As for B3, the binding result is given as “recognises”.

As for B4, the binding result is recorded as “recognises”.

On to B5, for which the binding result is “recognises”.

Regarding B6, the binding result is recorded as “recognises”.

As for B7, the binding result is on record as “recognises”.

Consider B8, for which the binding result is listed as “recognises”.

For the molecule B9, the binding result was “recognises”.

A further assay has the same target. Kind of assay: CD69 by flow cytometry on TCR1-transduced Jurkat cells; K562-A*11:01 loaded with peptide at 10^-11 to 10^-6 M; FIG. 4C; full-length, on cells. As for the experimental part: (§1) EC₅₀ values of different TCRs were assessed by spot numbers of IFN-γ release and CD69 expression after co-culture of specific TCR-transduced T cells with target cells loaded with graded concentrations of KRAS G12V-9 peptide ([…]) (SEQ ID NO: 91).
(In general: In flow cytometry, cells or beads pass a laser one at a time.)
B10 registered an EC50 of peptide of 31.3 nM.

A further assay concerns the target T2, KRAS G12V peptide on HLA-A*11:01. The description is as above. The procedure: as §1
As for B10, the EC50 of peptide came to 2.24 nM.

For another assay the target is unchanged. The assay can be described thus: multimer staining.
On to B2, for which the binding result is recorded as “recognises”.

Regarding B3, the binding result is reported as “recognises”.

Turning to B4, the binding result is “recognises”.

Turning to B5, the binding result was “recognises”.

On to B6, for which the binding result is given as “recognises”.

As to B7, the binding result is on record as “recognises”.

On to B8, for which the binding result is recorded as “recognises”.

As to B9, the binding result is “recognises”.
